Laboratory results published in publication PMC6747709 (2019).
Positions count from the first letter of the chain named. In names and notes the source's numbering stands. Where two headings read alike, the source gives them in different places. Values belong to the binder of their own block, whether it stands above or below them.

Columns and labels:
Assay in all cases: SPR
[1] = target: T1, CD47 extracellular domain (UniProt Q08722, biotin (enzymatically biotinylated; stated for the SPR experiment))
[2] = target: T1, CD47 extracellular domain; remark: listed apart in the source
[3] = target: T1, CD47 extracellular domain; remark: listed apart in the source
[4] = target: T1, CD47 extracellular domain; remark: listed apart in the source
[5] = target: T1, CD47 extracellular domain; remark: listed apart in the source
[6] = target: T1, CD47 extracellular domain; remark: listed apart in the source

T1 sequence (Q08722 19-141): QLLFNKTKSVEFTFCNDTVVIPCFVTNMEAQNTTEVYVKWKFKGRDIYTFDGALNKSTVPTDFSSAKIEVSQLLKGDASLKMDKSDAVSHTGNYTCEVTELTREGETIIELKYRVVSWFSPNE

B1: Nb02 mutant M4 (VHH)
VHH: EVQLQASGGGLVQAGGSLRLSCAASGFTNERSQNMGWFRQAPGKEREGVACIQSRVVECWYADSVKGRFTISRDNAKNTVYLQMNSLKPEDTAVYYCAAPRAITGHSAVGEHMCDYWGQGTQVTVSS
koff [1]: 0.000392 s⁻¹

B4: Nb02 mutant M2 (VHH)
VHH: B1 VHH with G105W, H106T, S107V, A108F
koff [4]: 2.73e-05 s⁻¹

B6: Nb02 mutant M6 (VHH)
VHH: B1 VHH with G105W, S107V, A108F
koff [6]: 0.000117 s⁻¹

Continued, values first:

koff [2]: 0.000126 s⁻¹
B2: Nb02 mutant M1 (VHH)
VHH: B1 VHH with G105W, A108F

koff [3]: 0.000312 s⁻¹
B3: Nb02 mutant M3 (VHH)
VHH: B1 VHH with S107V, A108F

koff [5]: 4.04e-05 s⁻¹
B5: Nb02 quadruple mutant M7 (G107W, T108H, S109V, F110A) (VHH)
VHH: B1 VHH with Q53S, G105W, S107V
